T1: PCNA_(1–2-3) heterotrimer of S. solfataricus (S. solfataricus, UniProt P57766 1-249; Q97Z84 1-245; P57765 1-244)
T1 sequence 1: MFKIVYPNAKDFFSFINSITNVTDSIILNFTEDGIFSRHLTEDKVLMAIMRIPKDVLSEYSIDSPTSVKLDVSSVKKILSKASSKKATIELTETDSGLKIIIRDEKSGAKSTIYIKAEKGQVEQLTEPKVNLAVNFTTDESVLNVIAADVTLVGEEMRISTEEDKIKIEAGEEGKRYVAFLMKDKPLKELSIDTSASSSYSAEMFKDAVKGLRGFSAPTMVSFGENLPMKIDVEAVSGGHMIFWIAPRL
T1 sequence 2: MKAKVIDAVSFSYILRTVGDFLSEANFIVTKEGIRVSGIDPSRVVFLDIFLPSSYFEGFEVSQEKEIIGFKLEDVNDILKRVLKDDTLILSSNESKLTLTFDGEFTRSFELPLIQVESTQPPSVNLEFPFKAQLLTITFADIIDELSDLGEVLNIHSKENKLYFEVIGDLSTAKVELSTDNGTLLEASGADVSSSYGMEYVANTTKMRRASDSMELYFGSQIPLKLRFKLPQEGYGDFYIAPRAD
T1 sequence 3: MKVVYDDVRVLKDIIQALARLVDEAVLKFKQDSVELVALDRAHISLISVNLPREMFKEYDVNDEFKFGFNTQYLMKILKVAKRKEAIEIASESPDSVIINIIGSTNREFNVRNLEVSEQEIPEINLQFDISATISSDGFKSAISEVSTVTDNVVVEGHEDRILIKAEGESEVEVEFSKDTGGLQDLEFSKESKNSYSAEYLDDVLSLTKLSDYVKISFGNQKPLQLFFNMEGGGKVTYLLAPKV

T2: PCNA1–2 heterodimer of S. solfataricus (S. solfataricus, UniProt P57766 1-249; Q97Z84 1-245)
T2 sequence 1: T1 sequence 1
T2 sequence 2: T1 sequence 2

T3: PCNA heterotrimer containing PCNA2 S42C (S. solfataricus, UniProt P57766 1-249; Q97Z84 1-245; P57765 1-244, S42C)
T3 sequence 1: T1 sequence 1
T3 sequence 2: T1 sequence 2 with S42C
T3 sequence 3: T1 sequence 3

T4: PCNA1 subunit of S. solfataricus PCNA (S. solfataricus, UniProt P57766 1-249)
T4 sequence: T1 sequence 1

B1: DNA ligase from S. solfataricus (Lig), wild type (enzyme)
chain: MEFKVIAEYFDKLEKISSRLQLTALLADLLSKSDKTIIDKVVYIIQGKLWPDFLGYPELGIGEKFLIKAISIATNTDENSVENLYKTIGDLGEVARRLKSKQQSTGILGFLGTTSKESLTVDEVYSTLSKVALTTGEGSRDLKIRLLAGLLKKADPLEAKFLVRFVEGRLRVGIGDATVLDAMAIAFGGGQSASEIIERAYNLRADLGNIAKIIVEKGIEALKTLKPQVGIPIRPMLAERLSNPEEILKKMGGNAIVDYKYDGERAQIHKKEDKIFIFSRRLENITSQYPDVVDYVSKYIEGKEFIIEGEIVAIDPESGEMRPFQELMHRKRKSDIYEAIKEYPVNVFLFDLMYYEDVDYTTKPLEARRKLLESIVKPNDYVKIAHHIQANNVEDLKSFFYRAISEGGEGVMVKAIGKDAIYQAGARGWLWIKLKRDYQSEMADTVDLVVVGGFYGKGKRGGKISSLLMAAYNPKTDSFESVCKVASGFSDEQLDELQKKLMEIKRDVKHPRVNSKMEPDIWVEPVYVAEIIGSEITISPLHTCCQDVVEKDAGLSIRFPRFIRWRDDKSPEDATTTDEILEMYNKQPKKKIESPAVDESV
B2: Lig 337 Y-C mutant (enzyme, S. solfataricus)
chain: B1 chain with Y337C
B3: Lig 338 E-C mutant (enzyme, S. solfataricus)
chain: B1 chain with E338C
B4: PCNA3 subunit of S. solfataricus PCNA (natural protein)
chain: T1 sequence 3
B5: Lig 145 R-D mutant (enzyme, S. solfataricus)
chain: B1 chain with R145D
B6: PCNA2 subunit of S. solfataricus PCNA (natural protein)
chain: T1 sequence 2
B7: Lig 145 R-L mutant (enzyme, S. solfataricus)
chain: B1 chain with R145L

Numbering of substitutions follows the chain as printed. Ends that are not written are not given here.

The target in experiment [1] is T1, PCNA_(1–2-3) heterotrimer of S. …. As to the kind of experiment: fluorescence polarisation. (In general: Polarisation of emitted light reports the rotation of a fluorescent probe.)
In experiment [2] the target is B4. As to the kind of experiment: fluorescence polarisation.
Experiment [3] deals with T2, PCNA1–2 heterodimer of S. solfataricus. As to the kind of experiment: fluorescence polarisation.
The target of experiment [4] is T1, PCNA_(1–2-3) heterotrimer of S. …. Briefly: SEC-MALS.
Experiment [5] addresses T3, PCNA heterotrimer containing PCNA2 S42C. Briefly: cross-linking.
For experiment [6], the target named is B1. As to the kind of experiment: negative stain electron microscopy.
The target in experiment [7] is T4, PCNA1 subunit of S. solfataricus PCNA. Briefly: cryo-EM structure.
Experiment [8] has as its target B6. As to the kind of experiment: cryo-EM structure.
Experiment [9] concerns the target T1, PCNA_(1–2-3) heterotrimer of S. …. Briefly: SEC.

Consider KSKQQSTGILGFLGTTS (also: 6-FAM label, position not given here) [fluorescently labeled Lig loop peptide (17 residues, PIP motif)], for which the Kd in [1] is 13.1 ± 2.5 µM; in [2], 32.5 ± 6.6 µM; in experiment [3], 177 ± 74.4 µM. Turning to B1, the “stoichiometry N” value in experiment [4] is 1. On to B2, for which the binding result in experiment [5] was “binds”. On the same count and under the same terms, then B3, with “binds”. For the molecule B4, the binding result in [6], in experiment [7] and in experiment [8] was “binds” in each case.

B5: the binding result in experiment [9] is “binds”.

Regarding B6, the binding result in experiment [6] and in experiment [7] was “binds” each time. For B7, the binding result in experiment [9] is “binds”.

One may read the Kd as the concentration at which binding is half-saturated. A high value points to a looser complex. As a reminder, the stoichiometry N is the number of molecules, sites or subunits per partner or assembly.
